{"source": "patent US20240366624A1", "about": "“METHODS AND COMPOSITIONS FOR TREATING THROMBOTIC DISEASE” (Washington University, priority 2023, published 2024)", "molecules": {"B1": {"name": "mutant STIM1: STIM1 with Cys49 and Cys56 mutated to Ser (protein)", "chain": "LSHSHSEKATGTSSGANSEESTAAEFSRIDKPLSHSEDEKLSFEAVRNIHKLMDDDANGDVDVEESDEFLREDLNYHDPTVKHSTFHGEDKLISVEDLWKAWKSSEVYNWTVDEVVQWLITYVELPQYEETFRKLQLSGHAMPRLAVTNTTMTGTVLKMTDRSHRQKLQLKALDTVLFGPPLLTRHNHLKD"}}, "biological_target": "T1, ERO1α (Homo sapiens, UniProt Q96HE7)", "T1 sequence (Q96HE7 24-468)": "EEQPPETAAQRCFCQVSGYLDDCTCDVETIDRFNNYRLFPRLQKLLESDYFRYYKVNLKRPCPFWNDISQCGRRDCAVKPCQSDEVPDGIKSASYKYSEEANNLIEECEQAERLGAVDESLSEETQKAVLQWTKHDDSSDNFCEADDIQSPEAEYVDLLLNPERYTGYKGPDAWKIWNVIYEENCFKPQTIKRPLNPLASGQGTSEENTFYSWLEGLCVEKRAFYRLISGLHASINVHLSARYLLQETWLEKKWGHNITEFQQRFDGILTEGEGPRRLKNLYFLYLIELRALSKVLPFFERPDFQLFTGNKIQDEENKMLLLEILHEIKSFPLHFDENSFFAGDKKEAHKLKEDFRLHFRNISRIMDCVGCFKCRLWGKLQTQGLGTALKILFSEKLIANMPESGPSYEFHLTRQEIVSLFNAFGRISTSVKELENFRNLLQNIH", "test": "Bio-layer interferometry, STIM1 on biotinylated ERO1α biosensor", "assay_type": "binding", "experimental": "FIG. 11(A-Q) is an exemplary embodiment of ERO1α (endoplasmic reticulum oxidoreductase 1α) regulating the function of Ca^2+ signaling molecules, STIM1 (stromal interaction molecule 1) and SERCA2 (sarco/endoplasmic reticulum Ca^2+ ATPase 2), and enhancing cytosolic Ca^2+ levels during platelet activation in accordance with the present disclosure. FIG. 11A: Mass spectrometric analysis was performed to identify proteins interacting with ERO1α in resting and thrombin-activated human platelets. […] FIG. 11B and FIG. 11C: Immunoprecipitation of ERO1α with lysates of resting and thrombin (Thr)-activated human platelets, followed by immunoblotting and densitometry. FIG. 11(D-F): Ca^2+ release and influx of wild type (WT) and Ero1α-null platelets were assessed in response to 0.1 U/mL thrombin, 2 μM A23187, or 20 μM thapsigargin (TG), followed by the addition of 1 mM CaCl2. The Ca^2+ signal was quantified by the area under the curve (AUC). […] After incubation with a different concentration of wtSTIM1 and mutant STIM1 (mSTIM1), the specific interaction between ERO1α and STIM1 was measured by subtracting the nonspecific binding. The dissociation constant, KD, was calculated from the Kon and Koff values. […] Please note that the unmodified peptide was not detected. […] P values determined by unpaired Student t test. […]", "data": [{"molecule": "B1", "values": [{"measurement": "KD, ERO1α binding to STIM1", "result": "minimal and not concentration dependent"}]}]}
